Data as given in US20090117043A1 (Human Genome Sciences, published 2009).
Where no end group is shown, it is not given here.

B1: N024C01 (scFv)
scFv: QVQLQQSGAEVKNPGSSVKVSCKPSRDTLSGDNFSSSVFSWVRQAPGQGLEWMGGIIPIFGVANYAQKFQPRVTISADMSTNTAYMELSSLRSEDTAVYYCASTWELRNAFDIWGKGTLVTVSSGGGGSGGGGSGGGGSQSVLTQPPSVSAAPGQKVTISCSGSTSNIGNNYVSWYQQHPGKAPKLMIYDVSKRPSGVPDRFSGSKSGNSASLDISGLQSEDEADYYCAAWDDSLSEFLFGTGTKLTVLG
B2: NO25C01 (scFv)
scFv: QVQLVQSGAEVKKPGTSVKVSCKAAGDTFRSYIISWVRQAPGQGLEWVGGIIPMFGTSNYAQKFQGRVTITADDSTSTAYMELSSLRSEDTAVYYCARTAQGGSYYNYWGQGTPVTVSSGGGGSGGGGSGGGGSQSVLTQPPSVSAAPGQKVTISCSGSTSNIGNNYVSWYQQHPGKAPKLMIYDVSKRPSGVPDRFSGSKSGNSASLDISGLQSEDEADYYCAAWDDGLSEFLFGTGTKLTVLG
B3: N015E08 (scFv)
scFv: QMQLQESGAEVKKPGSSVKVSCKASGDTFRSYIISWVRQAPGQGLEWMGGIIPMFGTTNYAQQFQGKVTITADDSTSTSYMELRSLRSDDTAVYYCARGTNYMDVWGQGTTVTVSSGGGGSGGGGSGGGGSQSVLTQPPSVSAAPGQKVTISCSGSTSNIGNNYVSWYQQHPGKAPKLMIYDVSKRPSGVPDRFSGSKSGNSASLDISGLQSEDEADYYCAAWDDSLSEFLFGTGTKLTVLG
B4: NO24C05 (scFv)
scFv: QVQLQQSGPGLVKPSQTLSLTCAISGDSVSSNTAAWSWIRQSPSRGLEWLGRTYYSRSKWYKDYAVSVKSRITINPDTSKNQFSLQLDSVTPEDTAVYYCTREGYYDYSGVVDYWGQGTTVIVSSGGGGSGGGGSGGGGSQSVLTQPPSASGSPGQSVTISCTGTSSDVGGYNYVSWYQQHPGKAPKFMIYDVSKRPSGVSNRFSGSKSGNTASLTISGVQAEDEADYYCSSYTSASTVIFGGGTKLTVLG
B5: NO15F10 (scFv)
scFv: QVQLQQSGAEVKKPGSSVKVSCKASGGTFSSYAISWVRQAPGQGLEWMGGSIPKFRTANYAKKFQGRVTITADESTSTAYMELSSLRSDDTAVYYCARGSAYNLRNAFDIWGQGTTVTVSSGGGGSGGGGSGGGGSAQSVVTQPPSVSAAPGQRVTISCSGSSSNIANNYVSWYQQLPGTAPKLLIYDNNKRPSGIPDRFSGSKSGTSATLGITGLQTGDEADYYCGTWDSSLSAYVFGTGTKVTVLG
B6: NO25E05 (scFv)
scFv: QVQLQQSGAEVKKPGSSVKVSCKASGDTFSSNTISWVRQAPGQGLEWMGGIIPIIGTPHYAQKFQGRVTITADRSTSTAYMELTNLRSEDTAVYFCARNRVGTSSFDFWGQGTMVTVSSGGGGSGGGGSGGGGSALPVLTQPPSASGTPGQRVTISCSGSSSNIGSNTVNWYQQLPGTAPKLFIYSNNQRPSGVPDRFSGSKSGTSASLAISGLQSEDEADYYCSSWDDSLNLIFGGGTKVTVLG
B7: NO24B07 (scFv)
scFv: QVQLQQSGAEVKKPGSSVKVSCKASGGTFSSYAISWVRQAPGQGLEWMGGSIPKFRTANYAKKFQGRVTITADESTSTAYMELSSLRSDDTAVYYCARGSTYNLRNAFDIWGKGTLVTVSSGGGGSGGGGSGGGGSAQSVVTQPPSASGTPGQRVTISCSGGSSNIGRNTVNWYQQVPGTAPKLLIYTNNQRPSGVPDRFSGSKSGTSASLAISGLQSEDEADYYCAAWDDSLNDVEFGGGTKLTVLG
B8: NO24F07 (scFv)
scFv: QVQLQQSGAEVKKPGSSVNVSCKASGGTFDTFGISWVRQAPGKGLEWMGVIAHDGSISYYADSVKGRFTFSRDNSKNTVSLQMNSPRPEDTAVYYCAKGEYDSSGYNAFDIWGKGTLVTVSSGGGGSGGGGSGGGGSQSVLTQPPSVSAAPGQKVTVSCSGSTSNIGNNYVSWYQQHPGKAPKLMIYDVSKRPSGVPDRFSGSKSGNSASLDISGLQSEDEADYYCAAWDDSLSEFLFGTGTKLTVLG
B9: NO23F05 (scFv)
scFv: QVQLVQSGAEVKKPGFSVKVSCKASGGSFSNYVISWLRQAPGQGLEWMGGIMPIFGNANYAQKFQDRVTITADKSTSTAYMELSSLRSDDTAVYYCARDQIVVDPVTKGAYYSGLDVWGRGTMVTVSSGGGGSGGGGSGGGGSAQSVLTQPPSASGTPGQRVTISCSGGSSNIGANAITWFQQLPGTAPKLLIYHNNQRPSGVPDRFSGSKSGTSGSLAISGLQSEDEADYYCAVWDNSLNAMLFGGGTKLTVLG
B10: NO24B01 (scFv)
scFv: QVQLQQSGNEVKKPGSSVKISCKASGAPFNSYVISWVRQAPGQGLEWVGGVVPIFGTAHYAHQFQGRVTIIADKSTSTVYMELRGLTSDDTAEYFCARQGPYGKLDDWGQGTMVTVSSGGGGSGGGGSGGGGSALSYELTQPPSASGTPGQRVTISCSGSSSNIGSNYVYWYQQFPGTAPKLLMYRNNQRPSGVPDRFSGSKFGTSASLAISGLRSEDEADYYCAAWDDSLTGRVFGGGTKVTVLG
B11: NO24D01 (scFv)
scFv: QVQLQQSGGGVVQPGRSLRLSCAASGFTFDDYAMHWVRQAPGKGLEWVSGISWNSGSIGYADSVKGRFTISRDNAKNSLYLQMNSLRAEDTALYYCAKTGGGNSLDYWGRGTLVTVSSGGGGSGGGGSGGGGSQSVLTQPPSVSAAPGQKVTISCSGSTSNIGNNYVSWYQQHPGKAPKLMIYDVSKRPSGVPDRFSGSKSGNSASLDISGLQSEDEADYYCAAWDDSLSEFLFGTGTKLTVLG
B12: NO23E01 (scFv)
scFv: QVQLVQSGGGLVQPGRSLRLSCAASGFTFDDYAMHWVRQAPGKGLEWVSGISWNSASIGYADSVKGRFTISRDNAKNSLYLQMNSLRGEDTALYYCAKGARDALDIWGKGTLLTVSSGGGGSGGGGSGGGGSQSVLTQPPSVSAAPGQKVTISCSGSTSNIGNNYVSWYQQHPGKAPKLMIYDVSKRPSGVPDRFSGSKSGNSASLDISGLQSEDEADYYCAAWDDSLSEFLFGTGTKLTVLG
B13: NO24F09 (scFv)
scFv: QVQLQQSGAEVKKPGASVKVSCKASGYTFTGYYMHWVRQAPGQRLEWMGGILPFFGTTSYAQNFHGRLTITADESTRTAYMELSSLKSEDTAVYYCARDESADPKNAFDIWGRGTMVTVSSGGGGSGGGGSGGGGSQSVLTQPPPVSAAPGQKVTISCSGSTSNIGNNYVSWYQQRPGKAPKLMIYDVSKRPSGVPDRFSGSKSGNSASLDISGLQSEDEADYYCAAWDDSLSEFLFGTGTKLTVLG
B14: NO24D08 (scFv)
scFv: EVQLVQSGAEVKRPGASVKISCRTSGYTFTSYYIHWVRQAPGQGLEWLAIINPTAGNTYYTQDFQDRVTVTRDTSTSTVYMELRGLNSEDTAVYYCASPYGVRNAFDVWGQGTMVTVSSGGGGSGGGGSGGGGSQSVLTQPPSVSAAPGQKVTISCSGSTSNIGNNYVSWYQQHPGKAPKLMIYDVSKRPSGVPDRFSGSKSGNSASLDISGLQSEDEADYYCAAWDDSLSEFLFGTGTKLTVLG
B15: NO15D10 (scFv)
scFv: QVQLVQSGAEVKKPGSSVRISCKASGGSFRTYVVSWVRQAPGQGLEWMGGIIPVYGTPNYAQKFQGRVTITADEPTRTTYMELSSLRSEDTGVYYCARNGGGLDYWGQGTMVTVSSGGGGSGGGGSGGGGSQSVLTQPPSVSAAPGQKVTISCSGSTSNIGNNYVSWYQQHPGKAPKLMIYDVSKRPSGVPDRFSGSKSGNSASLDISGLQSEDEADYYCAAWDDSLSEFLFGTGTKLTVLG
B16: NO24E07 (scFv)
scFv: QVQLQESGGGLEQPGRSLRLSCTASGFTFDDYPMHWVRQAPGKGLEWVSGISGNSDRIAYADSVKGRFTISRDNSKNTLWLQMNSLRAEDTAIYYCARAARNWFDPWGQGTLVTVSSGGGGSGGGGSGGGGSQSVLTQPPSVSAAPGQKVTISCSGSTSNIGNNYVSWYQQHPGKAPKLMIYDVSKRPSGVPDRFSGSKSGNSASLDISGLQSEDEADYYCAAWDDSLSEFLFGTGTKLTVLG
B17: NO15D08 (scFv)
scFv: QVQLLQSAPEVKKPGSSVRVSCKTSGGTFSSQLINWVRQPPGQGPEWMGGIIPIFGTANYAQKFQGRVTITADESTSTAYMELSSLRSEDTAVYYCARDLTAGRFDAFHIWGRGTLVTVSSGGGGSGGGGSGGGGSQSVLTQPPSVSAAPGQKVTISCSGSTSNIGNNYVSWYQQHPGKAPKLMIYDVSKRPSGVPDRFSGSKSGNSASLDISGLQSEDEADYYCAAWDDSLSEFLFGTGTKLTVLG

Molecular target: T1, mature form of the neurokinin B polypeptide (amino acids 81 to 90 of SEQ ID NO:2) (human, ends and bridges not checked)
T1 construct: also called NKB; neurokinin 3 (NK3)
T1 peptide: DMHDFFVGLM
Test: phage display selection of scFvs; conditions not given

Binder	binding result
B1	binds
B2	binds
B3	binds
B4	binds
B5	binds
B6	binds
B7	binds
B8	binds
B9	binds
B10	binds
B11	binds
B12	binds
B13	binds
B14	binds
B15	binds
B16	binds
B17	binds
